B1: Cell division cycle and apoptosis regulator protein 1 (Homo sapiens), Q8IX12 (parent)
chain: MAQFGGQKNPPWATQFTATAVSQPAALGVQQPSLLGASPTIYTQQTALAAAGLTTQTPANYQLTQTAALQQQAAAAAAALQQQYSQPQQALYSVQQQLQQPQQTLLTQPAVALPTSLSLSTPQPTAQITVSYPTPRSSQQQTQPQKQRVFTGVVTKLHDTFGFVDEDVFFQLSAVKGKTPQVGDRVLVEATYNPNMPFKWNAQRIQTLPNQNQSQTQPLLKTPPAVLQPIAPQTTFGVQTQPQPQSLLQAQISAASITPLLQTQPQPLLQQPQQKAGLLQPPVRIVSQPQPARRLDPPSRFSGRNDRGDQVPNRKDDRSRERERERRRSRERSPQRKRSRERSPRRERERSPRRVRRVVPRYTVQFSKFSLDCPSCDMMELRRRYQNLYIPSDFFDAQFTWVDAFPLSRPFQLGNYCNFYVMHREVESLEKNMAILDPPDADHLYSAKVMLMASPSMEDLYHKSCALAEDPQELRDGFQHPARLVKFLVGMKGKDEAMAIGGHWSPSLDGPDPEKDPSVLIKTAIRCCKALTGIDLSVCTQWYRFAEIRYHRPEETHKGRTVPAHVETVVLFFPDVWHCLPTRSEWETLSRGYKQQLVEKLQGERKEADGEQDEEEKDDGEAKEISTPTHWSKLDPKTMKVNDLRKELESRALSSKGLKSQLIARLTKQLKVEEQKEEQKELEKSEKEEDEDDDRKSEDDKEEEERKRQEEIERQRRERRYILPDEPAIIVHPNWAAKSGKFDCSIMSLSVLLDYRLEDNKEHSFEVSLFAELFNEMLQRDFGVRIYKSLLSLPEKEDKKEKDKKSKKDERKDKKEERDDETDEPKPKRRKSGDDKDKKEDRDERKKEDKRKDDSKDDDETEEDNNQDEYDPMEAEEAEDEEDDRDEEEMTKRDDKRDINRYCKERPSKDKEKEKTQMITINRDLLMAFVYFDQSHCGYLLEKDLEEILYTLGLHLSRAQVKKLLNKVVLRESCFYRKLTDTSKDEENHEESESLQEDMLGNRLLLPTPTVKQESKDVEENVGLIVYNGAMVDVGSLLQKLEKSEKVRAEVEQKLQLLEEKTDEDEKTILNLENSNKSLSGELREVKKDLSQLQENLKISENMNLQFENQMNKTIRNLSTVMDEIHTVLKKDNVKNEDKDQKSKENGASV

Variants of: B1
Conditions: with wwtr1_mouse Wwtr1, Q9EPK5
Sequence of wwtr1_mouse Wwtr1, Q9EPK5 (Q9EPK5 whole entry): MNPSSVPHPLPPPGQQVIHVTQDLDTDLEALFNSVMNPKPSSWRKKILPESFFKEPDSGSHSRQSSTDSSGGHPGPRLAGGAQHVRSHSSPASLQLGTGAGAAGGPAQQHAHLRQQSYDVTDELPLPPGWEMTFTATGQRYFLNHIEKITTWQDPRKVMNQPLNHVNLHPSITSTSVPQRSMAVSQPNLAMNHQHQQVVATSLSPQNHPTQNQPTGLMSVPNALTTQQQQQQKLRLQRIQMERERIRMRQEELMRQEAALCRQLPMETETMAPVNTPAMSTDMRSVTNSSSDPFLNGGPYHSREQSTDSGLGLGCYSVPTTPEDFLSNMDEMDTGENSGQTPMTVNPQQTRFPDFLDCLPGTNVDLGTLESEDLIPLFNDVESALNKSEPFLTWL

Row | Variant | effect of a mutation on the interaction
1 | T667D | increasing interaction
2 | T667A | decreasing interaction
